Data published in publication PMC4552487 (2015).
Values belong to the binder of their own block, whether it stands above or below them.

Biological target: T1, Parkin (80-465)-Biotin, wild type (UniProt O60260 80-465, biotin (position not given))
T1 chain: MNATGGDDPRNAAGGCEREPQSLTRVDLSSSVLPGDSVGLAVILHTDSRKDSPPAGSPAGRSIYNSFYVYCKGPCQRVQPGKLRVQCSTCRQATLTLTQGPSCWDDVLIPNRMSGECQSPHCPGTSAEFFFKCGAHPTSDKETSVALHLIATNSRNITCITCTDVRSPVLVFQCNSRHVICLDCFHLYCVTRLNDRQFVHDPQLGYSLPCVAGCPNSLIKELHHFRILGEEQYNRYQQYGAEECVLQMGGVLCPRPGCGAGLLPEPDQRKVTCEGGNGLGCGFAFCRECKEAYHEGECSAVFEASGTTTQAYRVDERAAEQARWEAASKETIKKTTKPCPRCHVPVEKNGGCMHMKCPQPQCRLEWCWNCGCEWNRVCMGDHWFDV
Experiment: competition with GST-Ubl (AlphaScreen)

IC50: 134 nM
B1: Ubl (protein)
chain: MIVFVRFNSSHGFPVEVDSDTSIFQLKEVVAKRQGVPADQLRVIFAGKELRNDWTVQNCDLDQQSIVHIVQRPWRK

IC50: > 2530 nM
B2: Ser65-phosphorylated Parkin Ubl domain (residues 1-76) (Ubl^Phospho-Ser65) (domain or fragment)
chain: B1 chain
modifications: phosphoserine at 65
